Test results published in the Immune Epitope Database (IEDB).

How the values were obtained:
HLA-A*02:06 = test: IEDB peptide-MHC binding, purified MHC/competitive/radioactivity; ≥ and ≤ were set here for values at or beyond the usual limits of such assays
HLA-A*02:02 = test: as above
HLA-A*02:01 [1] = test: as above
HLA-A*68:02 [2] = test: IEDB peptide-MHC binding, cellular MHC/competitive/fluorescence; ≥ and ≤ were set here for values at or beyond the usual limits of such assays
HLA-A*02:03 = test: as above
HLA-A*68:02 [3] = test: IEDB peptide-MHC binding, purified MHC/competitive/radioactivity; ≥ and ≤ were set here for values at or beyond the usual limits of such assays
HLA-A*02:01 [4] = test: IEDB peptide-MHC binding, cellular MHC/competitive/fluorescence; ≥ and ≤ were set here for values at or beyond the usual limits of such assays
[5] = source organism: Vaccinia virus WR
[6] = source organism: Mammarenavirus choriomeningitidis
[7] = source organism: Mammarenavirus guanaritoense
[8] = source organism: Influenza A virus
[9] = source organism: Mammarenavirus brazilense

Sequence	IC50 (HLA-A*02:06; [5]) [µM]	IC50 (HLA-A*02:02; [5]) [µM]	IC50 (HLA-A*02:01 [1]; [5]) [µM]	IC50 (HLA-A*02:03; [5]) [µM]	IC50 (HLA-A*68:02 [3]; [5]) [µM]	IC50 (HLA-A*02:01 [4]; [5]) [µM]	also measured
IASILSLET	0.318	3.67	2.54	7.48	–	–	IC50 (HLA-A*68:02 [2]; [5]): 7.76 µM
STVDVRNIVT	1.57	3.06	3.05	11.6	0.475	–	–
NAVTTNNLL	0.202	1.85	–	24.9	4	–	–
LSYSQTMLL	–	–	–	–	–	–	IC50 (HLA-A*02:06; [6]): 3.72 µM; IC50 (HLA-A*02:02; [6]): 2.11 µM; IC50 (HLA-A*02:01 [4]; [6]): 8.28 µM; IC50 (HLA-A*68:02 [2]; [6]): 6.76 µM; IC50 (HLA-A*02:03; [6]): 11.3 µM
VMDTLNGIMM	0.403	0.0076	0.033	5.16	–	–	IC50 (HLA-A*68:02 [2]; [5]): 6.92 µM
GARVIWMDA	2.14	4.61	–	9.14	–	7.73	IC50 (HLA-A*68:02 [2]; [5]): 12 µM
TNAEFTFQL	–	–	–	–	–	–	IC50 (HLA-A*02:06; [7]): 3.62 µM; IC50 (HLA-A*02:02; [7]): 0.404 µM; IC50 (HLA-A*68:02 [3]; [7]): 0.0053 µM; IC50 (HLA-A*02:01 [4]; [7]): 5.02 µM; IC50 (HLA-A*02:03; [7]): 15.1 µM
IAGGVCYYLL	0.656	4.58	0.174	14.6	0.268	–	–
CAAMDDFQL	–	–	–	–	–	–	IC50 (HLA-A*02:06; [8]): 2.1 µM; IC50 (HLA-A*02:02; [8]): 1.01 µM; IC50 (HLA-A*02:01 [4]; [8]): 10.9 µM; IC50 (HLA-A*68:02 [2]; [8]): 5.07 µM; IC50 (HLA-A*02:03; [8]): 22.8 µM
LNISGYNYSL	–	–	–	–	–	–	IC50 (HLA-A*02:06; [9]): 1.1 µM; IC50 (HLA-A*02:02; [9]): 0.077 µM; IC50 (HLA-A*02:01 [4]; [9]): 10.6 µM; IC50 (HLA-A*68:02 [2]; [9]): 12.9 µM; IC50 (HLA-A*02:03; [9]): 49 µM
ETDDDGNYPL	1.16	3.59	2.17	28.2	0.027	–	–
NIVTDLENRL	1.55	0.261	–	17.6	–	19.6	IC50 (HLA-A*68:02 [2]; [5]): 13.2 µM
YCNYSKFWYL	–	–	–	–	–	–	IC50 (HLA-A*02:06; [6]): 1.06 µM; IC50 (HLA-A*02:02; [6]): 1.11 µM; IC50 (HLA-A*02:01 [1]; [6]): 1.71 µM; IC50 (HLA-A*68:02 [3]; [6]): 0.925 µM; IC50 (HLA-A*02:03; [6]): 9.64 µM
ALYYVHSLL	3.26	0.026	0.229	15	0.598	–	–
IASGQRCHFI	0.256	0.526	–	8.32	4.22	18.4	–
KNATWCLEV	–	–	–	–	–	–	IC50 (HLA-A*02:06; [9]): 2.31 µM; IC50 (HLA-A*02:02; [9]): 1.62 µM; IC50 (HLA-A*68:02 [3]; [9]): 1.39 µM; IC50 (HLA-A*02:01 [4]; [9]): 12.8 µM; IC50 (HLA-A*02:03; [9]): 7.02 µM
YVVIVENDNV	0.06	2.33	0.547	11	0.099	–	–

Sequence	IC50 (HLA-A*02:06; [5]) [µM]	IC50 (HLA-A*02:02; [5]) [µM]	IC50 (HLA-A*02:01 [1]; [5]) [µM]	IC50 (HLA-A*02:03; [5]) [µM]	IC50 (HLA-A*68:02 [3]; [5]) [µM]	IC50 (HLA-A*02:01 [4]; [5]) [µM]	also measured
MVEYLENQL	3.96	0.343	–	6.46	0.591	12	–
EQGDIALAL	4.77	0.701	–	11.1	0.8	13	–
LTHFNNNENV	0.996	0.907	–	7.27	0.011	6.59	–
TTTFITVLT	1.09	2.46	2.32	8.59	0.033	–	–
DISSFYWSL	3.97	0.391	–	6.87	0.028	8.51	–
TQSGALEVLM	2.23	0.836	–	15.4	–	10.6	IC50 (HLA-A*68:02 [2]; [5]): 12.3 µM
LTSVDIETA	0.311	4.92	–	11.5	1.24	24	–
HTYHLENDKI	1.99	1.79	–	13.7	0.284	59	–
HLTENNLYI	1.81	0.114	0.015	14.4	–	–	IC50 (HLA-A*68:02 [2]; [5]): 5.81 µM
FVETLARSI	–	–	–	–	–	–	IC50 (HLA-A*02:06; [8]): 4.33 µM; IC50 (HLA-A*02:02; [8]): 0.382 µM; IC50 (HLA-A*02:01 [4]; [8]): 5.26 µM; IC50 (HLA-A*68:02 [2]; [8]): 11.7 µM; IC50 (HLA-A*02:03; [8]): 6.18 µM
TIILNKIVQL	0.03	1.76	0.086	49.3	2.67	–	–
LLLIVQALR	–	–	–	–	–	–	IC50 (HLA-A*02:06; [8]): 3.15 µM; IC50 (HLA-A*02:02; [8]): 1.49 µM; IC50 (HLA-A*02:01 [1]; [8]): 3.09 µM; IC50 (HLA-A*68:02 [2]; [8]): 42.4 µM; IC50 (HLA-A*02:03; [8]): 8.19 µM
SVDIETAIRA	1.03	2.83	–	7.62	0.834	5.14	–
KIDKLTFQI	0.042	0.141	0.134	10.6	–	–	IC50 (HLA-A*68:02 [2]; [5]): 36.9 µM
VQLSNNKYVL	0.17	0.288	4.59	9.49	–	–	IC50 (HLA-A*68:02 [2]; [5]): ≥ 70 µM
SVDVDIYDA	0.953	1.2	–	11.9	0.345	13.3	–
YVHSLLYSSM	2.25	2.2	–	6.71	–	29	IC50 (HLA-A*68:02 [2]; [5]): 7.25 µM
